Experimental data reported in article PMC10219423, “Characterization of a New Thermostable and Organic Solution-Tolerant Lipase from Pseudomonas fluorescens and Its Application in the Enrichment of Polyunsaturated Fatty Acids” (International Journal of Molecular Sciences, 2023).

System: CCCCCCCC(=O)Oc1ccc([N+](=O)[O-])cc1
Assay: purified protein
Assay type: biochemical, Pseudomonas fluorescens
Conditions: Tris-HCl 50 mM, pH 8.0, 40 °C, ethanol and acetonitrile present, 0.01-2.0 mM substrate

LipB (Pseudomonas fluorescens) was tested, and the Km was 810 µM.
